Assay: yeast display, Sf9 membrane polyspecificity reagent, FACS + sequencing; frameworks hold sequencing errors
Summary of the method: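 A synthetic nanobody library was expressed on Saccharomyces cerevisiae BJ5465 by galactose induction for 36–48 hours. The library was stained for 1 hour at 4 °C with 10% biotinylated, detergent-solubilized Sf9 membrane reagent and enriched with streptavidin microbeads before FACS. Low and high (top ~1%) gates were set on anti-HA fluorescence for expression and streptavidin fluorescence for reagent binding, and each polyreactivity label reflects the gate of origin.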

Row | Sequence | polyreactivity (PSR sort gate)
1 | QVQLVESGGGLVQAGGSLRLSCAASGLTFAFYAMGWYRQAPGKEREFVARIRTSAITYYADSVKGRFTISRDNAKTTVYLQMNSLKPEDTAVYYCAVSWNKLRDSSLYAYYYWGQGTQVTVSS | high polyreactivity
2 | QVQLVESGGGLVQAGGSLRLSCAASGRIFKRNAMGGYRQAPGKDREVVADMSYGHSTYADSVKGRFTISRDNAKKTVYLQMNSLKPEDTAFYYCAKLYWIRTYDYWGQGTQVSVSS | low polyreactivity
3 | QVQLVESGGGLVQAGGSLRLSCAASGRIFIYYAMGWYRQAPGKERELVAAISWSGGRTYYADSVKGRFTISRDNAKNTVYLQMNSLKPEDTAVDYCAGYSFANHGFDYWGQGTQVIVSS | high polyreactivity
4 | QVQLVESGGGLVQAGGSLRLSCAASGSTFGEYPMGWYRQAPGKEREFVAAITFSDDSTYYADSVKGRFTISRDNAKNTVYLQMNSLKPEDTAVYYCAAVLSRHYDYWGQGTQVTVSS | high polyreactivity
5 | QVQLVESGGGLVQAGGSLRLSCAASGSIFDDYAMGWYRQAPGKERELVAAISWSGGRTYYADSVKGRFTISRDNAKNTVYLQMNSLKPEDTAVYYCAASTGVRSRRYYYWGQGTQVTVSS | low polyreactivity
6 | QVQLQESGGGLVNAGGSLRLSCAASGTISFINMMGWYRQAPGRERELVASINFGANTNYADSVKGRFTISRDNAKNTVYLQMNSLKPEDTAVYYCAVYDFDAYTLYYWGQGTLVTVSS | high polyreactivity
7 | QVQLVESGGGLVQAGGSLRLSCAPSGLIFAHYDMGWYRHAPGKERELVAGITSGGSTNYADSVKGRFTISRDNAKITVYLQMNSQKPEYTAVYYCNADRAGFLGFYLYDYWGQGTQVTVSS | low polyreactivity
8 | QVQLVESGGGLVQAGGSLRISCAASGIIFYRNAMGWYRQAPGKERELVAVITASGGNTYYADSVKGRFTISRDNAKNTVYLQMNSLKPEDTAVYYCNRELTSPRRWHVSRAYDYWGQGTQVTVSS | low polyreactivity
9 | QLQLVESGGGLVQAGGSLRLSCAASGSIFKPYALRCYIQAPGKERELVAAITRSGGSTYYADSVKGRFTISRDNAKNTVYLQMNSLKPEDTAVYYCAAGNAPYYRFGSKKYGYWGQGTQVTVSS | high polyreactivity
10 | QVQLVESGGGLVQAGGSHRLSCAASGITFRRYAMGWYRQAPGKERELVARITDRGSTYYADSVKGRFTSSRDNAKNTVYLQMNSLKPEDTAVYYCAARGYRGLVQLRYGYWGQGTQVTVSS | high polyreactivity
11 | QVQIVESGGGLVQAGGSLRLSCAASGSTFAYYTMGWYRQAPGKDRELVAAISASGGSTYYADSVKGRFTISRDNGKNTVYLQMNCLKPEVSEVYYCNAESYLTGWWVDYWGQGSQVTVSS | low polyreactivity
12 | QVQLVESGGGLVQAGGSLRLSCAASGRTFSYYAMGWYRQAPGKERELVATISWSGSTYYADSVKGRFTLSRDNAKNTVYLQMNSLKPEDTAVYYCAARYRYAGWYSVWYDYWGQGTQVSVSS | high polyreactivity
13 | HVQLVESGGGLVQAGGSLRLSCAASGSTLWYNAMGWNRQAPGKERELVAVITWTGGSTYYADSVKGRFTISRDNAKNTVYLQMNSLKPEDTAVYYCAVRWYFGNRYKYYYWGQGTQVTVSS | high polyreactivity
14 | QVQLVESGGGLVQAGGSLRLSCAASGFIFNWYAMGWYRQAPGKERELVAAITSGGSTNYADSVKGRFTISRDNAKNTVYLQMNSLKTEDTAVYYCAARHWRRYGYWGQGTQVTVSS | high polyreactivity
15 | QVQLVESGGGLVQAGGSLRLSCAASGSTFYGNAMVWYRQAPGKERELVARITTSGSTYYADSVKGRFTISRDNAKNTVYLQMNSLKPEDTAVYYCAKRGYGPSIRYYYWGHGTQVTVSS | high polyreactivity
16 | QVQLVESGGGLVQAGGSLRLSCAASGSIFDYNAMGWYIQAPGKEREFVAAITYSGGSTYYADSVKGRFTISRDNAKYTVYLQMYSLKPEDSAVYYCGADYFQHVPKYGYCGQGTQVTVSS | low polyreactivity
17 | QVQLVESGGGLVQAGGSLRLSCAASGSIFNYNMGWYRQAPGKERELVAAVSTNYADSVKGRFTISRDNAKNTVYLQMNSLKPEDPAGYYCGVTPEKSGDQYDYWGPGTQVTVSS | low polyreactivity
18 | QVQLVESGGGLVQAGGSLRLSCAASGFTFYRNAMGWYRHAPGTERELVAAISWSGDSTYYADSVKGRFTISRDNAKNTVYLQMNSLKPEDTAVYYCAKERYFYYPWVTTYTSNYWGQGTQVTVSS | low polyreactivity
19 | QVQLVESGGGLVQAGGSLRLSCAASGFTFDPDAMGWYRQAPGKERELVASITWSGDNTYYADSVKGRFSISRDNAKTTVYLQMNSLKPEDTAVYYCNVEWAWWSTRYDSWGQGTQVTVSS | high polyreactivity
20 | QVQLVESGGGLVQAGGSLRLSCAASGFTFVVYAMGWYRQAPGKERELVAAISARGGRTYYADSVKGRFTISRDNAKNTVYLQMNSLKPEDTAVYYCAATNQRQTRYDYWGQGTQVTVSS | high polyreactivity
21 | QVQLVESGGGLVQAGGSLRLSCAASGIIFYFYAMGWYRQAPGKERELVADITSGDRTNYADSVKGRFTISRDNAKNTVYLQMNSLKPEDTAVYYCAAGTSKPTPIYGYWGQGTQVTVSS | low polyreactivity

Row | Sequence | polyreactivity (PSR sort gate)
22 | QVQLVESGGGLVQAGGSLRLSCAASGRIFYNYAMGWYRPAPGKDRVLVAAISVSGGSTYYADSEKGRFTISRDNAKNTVYLQMNSLKPEDTAVYYCAARRDRGYTREYWGQGTQVTVST | high polyreactivity
23 | QVQLVESGGGLVQAGGSLRLSCAASGSTFDQYAMGWYRQEPGKERELGAAISGSGGRTYYADSVKGRFTISRDNAKNTVYLQLNSLKPEDTAVYYCNTRAWRWGTDNSWGQGTQVTVSS | high polyreactivity
24 | QVQLVESGGGLVQAGGSLRLSCAPSAFTFKYYSMGWYRHTPGKESELVAVISWSGGSTYYADSVKGRFTISRDYAKNTVYLHMNSQKPEDTAVYYCAAYERKFYTVSRWYKLDYWGQGTQVTVSS | high polyreactivity
25 | QVQLVESGGGLVQAGGTLPLTCAASGSTYYVYAMGCDRQAPGKEREFVAAITGSDGSTYYADSVMGRFTISRDNAKNTVYLQMNSLKPEDTAVYYCAADYYLQNYETGYGYWGQGTQVTVSS | low polyreactivity
26 | QVQLVESGGGLVQAGGRLRLSSAASGRIFTNYAMGWYRQAPGKERELVARISKRGGSTYYADSVKGRLTFSRDNAKNTVYLQMNSLKPEDTAVYYCNAVSNLYYYWGQGTQVTVSS | high polyreactivity
27 | QVQLVESGGGLVQAGGSLRLSCAASGSTFYQNAMGWYRQAPGKEMELVAAISSSGRTYYADSVKGRFTISRDNAKNTVFLQMNSLKPEDTAVYYCAFGAYGSLYSIRVAYGRMDYWGQGTQVTVSS | high polyreactivity
28 | QVQLVESGGGLVQAGGSLRLSCAASGSIYWYAMGWYRQAPGKERQLVAAITKSGSSTYYADSVKGRFTISRDNAKNTVYLQMNSLIPEDTAVYYCAARRAVSGGVRTYYWGQGTQVTVSS | high polyreactivity
29 | QLQRVESGGGLVQAGGSLRLSCAASGITYRYYVMGWYRQAPGKETQLVAAITSGVSTYYADSVKGRFTISRDNAKNTVYLELNSLKPEDTAVDYCAADEPWTYYLYGKMYYWGQGTQVTVSS | high polyreactivity
30 | QVQLVESGGGLVQAGGSLRLSFAASGRIFPFYAMGWYRQEPGKERELVAALSWNGGSTFYADSVKGRFTISRDNAKNSVYLQMNSLKPEDTAVYYCAADCYATYFLYDSCGQGTQVTVSS | low polyreactivity
31 | QVQLVESGGGIVQAGGSLRLTCDASGFTFVINDMGRYRQARGKERELVADITSGGDTYYADSVKGRFTISRDNAKNSVYFHRNSLKPEDTAVYFCAADIYPDWIYLLYGYWGQGTQLTVSS | low polyreactivity
32 | QVQLVESGGGLVQAGGSLRLSCAASGRIFPFYAMVWYRQAPGKERELVAAITTSGGSTYYADSVKGRFTISRDNAKNTVYLQMNRLKPEDTAVYYCNKRLGLELAPWEMNYWGQGTQVTVSS | low polyreactivity
33 | QVQLVESGGGLVQAGGSLRLSCAASGSTFRSYAMGWYRQAPGKERELVAAISSSGSRTYYADSVKGRFTISRDNAKNTVYLQMNSLKPEDTAVYYCAADYYYNTKLDYWGQGTQVTVSS | high polyreactivity
34 | QVQLVESGGGLVQAGGSLRLSCASSGRIFSDYAMGWYRQAPGKEMEFVAAISSSGGRTYYADSVKGRFTISRDNAKNTFYLQMNSLKQEDTAVYYCNRYYGYYNTGRYGYWGQGTQVTVSS | high polyreactivity
35 | QVQLVESGGGLVQAGGSLRLSCSASGFIFYSYAMGWSRPAPGKEREFVAAISRSGGITYYADSVKGRFTISRDNAKNTVYLQMNSLKPEDTAVYYCAKVGRAVSSIKDMDSWGQGTQVTVSS | high polyreactivity
36 | QVQLVESGGGLVQAGGSLRLSCAASGSIFWRNVMGWYRQAPGKERELVAAISSGGSTYYADSVKGRFTISRDNAKNTVYLQMNSLKPEDTAVYYCAAPRYDYWGQGTQVTVSS | high polyreactivity
37 | QVQLVESGGGLVQAGGSLRLSCAASGSIFAKYAMGWYRQAPGKERELVAAISSGGSTYYADSVKGRFTISRDNAKNTVYIQMNSLKPEDTAVYYCAADYGSDYTKGDYWGQGTQVTVSS | low polyreactivity
38 | QVQLVESGGGLDQARGSLRLSCAASGFIFGRYAMGWYRQAPGKVRELVAAISRSGGSTHYADSVKGRFTISRDNAKNTVYLQMNSLKPEDTAVYYCNTYLTIWGYFYGYDYWGQGTQVTVSS | high polyreactivity
39 | QVQLVESGGGLVQAGGSLRLSCAASGITFGSYAMGWYRQAPGKERELVAAITWRGGTTYYADSVKARFTISRDNAKNTVYLQMNSLKPEDTAVYYCNTAWTGYPRYQYGGNYWGQGTQVTVSS | high polyreactivity
40 | QVQLVESGGGLVQAGGSLRLSCAASGFIFIAYAMGWYRQAPGKERELVAAISKSGGNTYYADSVKGRFTISRDNAKNTVYLQMNSLKPEDTAVYYCATRPGYWRYEYWGQGTQVTVSS | high polyreactivity
41 | QVQLVESGGGLVQAGGSLRLSCAASGSTFYAYAMGWYRQAPGKERELVAGISKRVGRTYYADSVKGRFTISRDNAKNTVYLQMNSLKPEDTAVYYCNADVYAYPATWLDYWGQGTQVTVSS | high polyreactivity

Reference: the nanobody polyreactivity screen of Harvey et al. (2022)
